# Results published in PMC9122593.
# Like-named read-outs stand apart in the source and are kept apart here.
# B1: crRNA-1 + lambda ssDNA (T-strand), no activator (mixed)
# RNA: AAUUUCUACUGUUGUAGAUUGUAAAGAAACAGUAAGAUAAU
# B2: crRNA-1/lambda-activator + lambda ssDNA (T-strand) (mixed)
# RNA: B1 RNA
# DNA: CATCGGGTTGAGTATTATCTTACTGTTTCTTTACATAAAC
# What was measured:
# [1] = target: T1, wtCas12a (Francisella novicida, UniProt A0Q7Q2 1-1300); assay: Mg2+
# [2] = target: T1, wtCas12a; assay: Mg2+; remark: listed apart in the source
# T1 sequence (A0Q7Q2 whole entry): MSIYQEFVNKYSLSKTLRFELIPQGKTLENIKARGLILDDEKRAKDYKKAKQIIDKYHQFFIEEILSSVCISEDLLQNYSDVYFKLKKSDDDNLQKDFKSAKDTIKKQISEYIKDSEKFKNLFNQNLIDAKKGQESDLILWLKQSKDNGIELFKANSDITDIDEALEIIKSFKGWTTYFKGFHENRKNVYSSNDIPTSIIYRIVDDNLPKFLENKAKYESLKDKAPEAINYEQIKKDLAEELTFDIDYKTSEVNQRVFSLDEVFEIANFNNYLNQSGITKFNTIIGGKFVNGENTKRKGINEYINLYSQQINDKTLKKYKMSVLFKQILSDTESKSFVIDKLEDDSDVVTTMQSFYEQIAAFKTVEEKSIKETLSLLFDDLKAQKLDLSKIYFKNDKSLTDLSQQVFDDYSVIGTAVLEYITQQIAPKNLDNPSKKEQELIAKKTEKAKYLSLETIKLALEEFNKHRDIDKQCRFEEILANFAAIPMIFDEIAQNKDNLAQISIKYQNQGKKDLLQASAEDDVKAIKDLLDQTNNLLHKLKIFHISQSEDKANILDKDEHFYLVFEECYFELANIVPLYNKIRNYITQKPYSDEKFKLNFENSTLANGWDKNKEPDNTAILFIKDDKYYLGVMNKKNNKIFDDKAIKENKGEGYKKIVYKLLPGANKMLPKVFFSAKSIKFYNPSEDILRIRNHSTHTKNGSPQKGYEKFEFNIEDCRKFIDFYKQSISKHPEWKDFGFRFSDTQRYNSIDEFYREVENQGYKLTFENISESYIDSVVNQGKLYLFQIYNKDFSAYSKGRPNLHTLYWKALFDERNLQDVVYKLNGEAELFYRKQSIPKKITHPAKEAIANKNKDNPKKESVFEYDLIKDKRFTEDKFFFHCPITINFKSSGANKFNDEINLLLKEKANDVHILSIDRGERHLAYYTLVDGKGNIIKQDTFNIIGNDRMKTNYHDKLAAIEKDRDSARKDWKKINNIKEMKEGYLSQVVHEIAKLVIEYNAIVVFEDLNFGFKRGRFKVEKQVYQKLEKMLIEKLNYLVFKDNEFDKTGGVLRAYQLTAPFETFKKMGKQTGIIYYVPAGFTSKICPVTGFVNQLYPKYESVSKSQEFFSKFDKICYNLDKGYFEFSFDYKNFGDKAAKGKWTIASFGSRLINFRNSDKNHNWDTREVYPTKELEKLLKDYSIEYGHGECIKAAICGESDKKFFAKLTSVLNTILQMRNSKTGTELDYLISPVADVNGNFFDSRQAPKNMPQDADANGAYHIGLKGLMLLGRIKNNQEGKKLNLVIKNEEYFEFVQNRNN
binder,measurement,setting,value
B1,binding result,[1],no binding
B2,binding result,[2],binds
